Reference: the supplement of paper PMC12764529
± gives the half width of the 95% confidence interval.

Tests used:
[1] = folding stability dG unfold from chymotrypsin proteolysis; higher = more stable
In short: (§1)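 Unfolding free energy was derived, per protease or combined, against a sequence-predicted unfolded-state K50 and a shared folded-state K50, starting from K50 inferred by Bayesian fitting of sequencing counts. Digestion with trypsin and chymotrypsin was carried out on designed mini-proteins under 80 residues without cysteine in a PA-tagged cDNA display construct. Only designs with AlphaFold2 dimer inter-PAE above 15 were kept.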

[2] = folding stability dG unfold from trypsin proteolysis; higher = more stable
Procedure: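 Folding stability of de novo designed mini-proteins (<80 aa, no Cys; designed by TrROS, TrMRF, ProteinMPNN and the joint model) was measured by cDNA display proteolysis with trypsin and chymotrypsin. Each protease was used at 11 concentrations in a threefold dilution series plus a no-protease condition. K50 was inferred by Bayesian fitting of sequencing counts, and dG unfold was derived against a sequence-predicted unfolded-state K50 (Tsuboyama et al. method). Sequences shown include variable-length N-terminal GS-type padding (SAGGSAGG...) inside a display construct carrying a PA tag. Rows were kept only if the AF2 dimer inter-PAE was >15, to exclude likely homo-oligomers.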

[3] = folding stability dG unfold (combined trypsin and chymotrypsin); higher = more stable
In short: as §1

Sequence: SAGGSAMRMERIKLPDGKDITIMRHPNEPRQYQLFFPGGRSISVNFPSPEEAIDHALEWIKNGKPFSAGGSA [r15_38_TrROS]
- folding stability dG unfold [1]: 0.764 ± 0.13 kcal/mol
- folding stability dG unfold [2]: 0.609 ± 0.12 kcal/mol
- folding stability dG unfold [3]: 0.78 ± 0.097 kcal/mol

Sequence: SADPPDAVKIEIRIYMMEYDPDGKWEQREFNIEIEVAPDGHIIIRLGNWWIVIDPKEGEVTEIFPGFRFSAG [r14_821_TrROS]
- folding stability dG unfold [1]: 3.67 ± 0.18 kcal/mol
- folding stability dG unfold [2]: 3.43 ± 0.13 kcal/mol
- folding stability dG unfold [3]: 3.14 ± 0.39 kcal/mol

Sequence: SAGGSAGGSKEKYIKIVVEVNGEKKVIVVKAKTIEELEELAKKLNLEVEIEKREDGYLVIRLKSAGGSAGGS [r12_810_TrROS_Hall]
- folding stability dG unfold [1]: 3.36 ± 0.058 kcal/mol
- folding stability dG unfold [2]: 3.21 ± 0.053 kcal/mol
- folding stability dG unfold [3]: 3.29 ± 0.058 kcal/mol

Sequence: SAGGSAGGSAGGSMVIRNENGYLIEVKTEVVVDEETKKKYVKTEIRIYKEGEEKELPEESAGGSAGGSAGGS [r4_48_TrROS_Hall]
- folding stability dG unfold [1]: 1.13 ± 0.1 kcal/mol
- folding stability dG unfold [2]: 0.369 ± 0.055 kcal/mol
- folding stability dG unfold [3]: 1 ± 0.22 kcal/mol

Sequence: SAGPDLPFDVRLVEVRDMEVRVTPDGRLVVTLPMVGRHPSGFLVRRTIRFEPETDRVEATGEVRPLDESAGG [r19_320_TrMRF]
- folding stability dG unfold [1]: 0.804 ± 0.087 kcal/mol
- folding stability dG unfold [2]: 0.581 ± 0.062 kcal/mol
- folding stability dG unfold [3]: 0.774 ± 0.059 kcal/mol

Sequence: STRTLTVVVEAPTLEEALAAAKALAPPGWKVTVTVERREVVDPETGETRTVLVVTVTIEPAPPPPPAEEKSA [r9_962_TrROS_Hall]
- folding stability dG unfold [1]: 3.16 ± 0.083 kcal/mol
- folding stability dG unfold [2]: 2.11 ± 0.028 kcal/mol
- folding stability dG unfold [3]: 2.86 ± 0.091 kcal/mol

Sequence: SLEEFLASEEAKKRLEALKPPPPVETIRIKVKAKSVEEALKAIRELFPGVEVVKIKEVRPDGYLEVEVRRSA [r9_723_TrROS_Hall]
- folding stability dG unfold [1]: 2.37 ± 0.36 kcal/mol
- folding stability dG unfold [2]: 3.89 ± 0.41 kcal/mol

Sequence: SAGGSAGGSAGGGMGSSVTITTEEDPTDETETTKKTKVTLNLPNPEEAEALKKKIEEKESAGGSAGGSAGGS [r10_1180_JUSTAS]
- folding stability dG unfold [1]: -0.807 ± 0.68 kcal/mol
- folding stability dG unfold [2]: -0.47 ± 0.18 kcal/mol

Sequence: SAGGMVVVKIRIEREVDGKVEEVELVLEVELDEDGKVSAEELKALLKELLPENVKITEIEVVEPGEEPSAGG [r13_504_TrROS_Hall]
- folding stability dG unfold [1]: 3.39 ± 0.2 kcal/mol
- folding stability dG unfold [2]: 4.76 ± 0.69 kcal/mol

Sequence: SAGGSAGGSAGMTITVPITDLEKLKTMPELPVEVIEEGEGPPTATLDASNPELAKQAYSSSAGGSAGGSAGG [r11_65_JUSTAS]
- folding stability dG unfold [1]: 0.117 ± 0.49 kcal/mol
- folding stability dG unfold [2]: -0.0977 ± 0.18 kcal/mol

Sequence: SAGEIAEALGFEVVDVSIEEVDGKLRITVVVRFKDNDLVITAEAEVTEVDGELKIEIKITIEPLPPEDLSAG [r5_516_TrROS_Hall]
- folding stability dG unfold [1]: 3.66 ± 0.37 kcal/mol
- folding stability dG unfold [2]: 2.85 ± 0.26 kcal/mol

Sequence: SAGGSAGGSEEVEIRIVLPDMSEEELKAALEALLSEPGAEIEIVRVERREDGSLVVTVKVRVPSAGGSAGGS [r12_348_TrROS_Hall]
- folding stability dG unfold [1]: 2.9 ± 0.12 kcal/mol
- folding stability dG unfold [2]: 4.83 ± 0.43 kcal/mol

Sequence: SAMTIEITVPPGMSVEELAKLLKELFPEVEEIKIEVEYDEETKELKVRIEIRPKPELSEEEKEALEKLKSAG [r14_645_TrROS_Hall]
- folding stability dG unfold [1]: 3.99 ± 0.47 kcal/mol
- folding stability dG unfold [2]: 2.9 ± 0.28 kcal/mol

Sequence: SAGGSAGGSAMPEPVTITVRVPYEPDEAEAAAERIREEEYPDAKSITVTRDPATGTATFTVNSAGGSAGGSA [r18_390_JUSTAS]
- folding stability dG unfold [2]: -0.222 ± 0.18 kcal/mol
- folding stability dG unfold [3]: < -1 kcal/mol

Sequence: SAGGRPTMTAEEAAIRLIKELGIPGVKDIKEVVAVVRGGDPDNKPEKGSAILIKAEVPAEEVERLKKESAGG [r13_552_TrMRF]
- folding stability dG unfold [2]: 0.221 ± 0.045 kcal/mol
- folding stability dG unfold [3]: -0.299 ± 0.11 kcal/mol

Sequence: SAGGLEAKITEIDEDGYLRIEIVDPETGELIAEIRIKIELPPPPPVPETEEVLDEDGRKRTVTRLYDRSAGG [r13_9_TrROS_Hall]
- folding stability dG unfold [2]: 0.214 ± 0.13 kcal/mol
- folding stability dG unfold [3]: -0.406 ± 0.23 kcal/mol

Sequence: SAGGSAGGSAGGSKKVIEVPAKDLTPEQLKKLAKEGETIEITFPNGEKKEIPAEKLKPKSAGGSAGGSAGGS [r4_382_TrROS_Hall]
- folding stability dG unfold [1]: -0.998 ± 0.9 kcal/mol
- folding stability dG unfold [2]: 0.115 ± 0.15 kcal/mol

Sequence: SAGGSAGGSAGGPEYIQINIKIYDPDNPKEREIPISMPVEEIEKIAKEFMPPGYRVEIISAGGSAGGSAGGS [r10_397_TrROS]
- folding stability dG unfold [2]: 0.152 ± 0.14 kcal/mol
- folding stability dG unfold [3]: < -1 kcal/mol

Sequence: SAGGSYRIEIEDIDPKPQWRPNPNGEWEPRPTLTIEVKIERNPDEMPEKEKQKIEEQAERIAKKFFSAGGSA [r2_40_TrROS]
- folding stability dG unfold [2]: -0.436 ± 0.4 kcal/mol
- folding stability dG unfold [3]: < -1 kcal/mol

Sequence: SAGGKVREIDFPMDPGELRDAIDELKREGYMVMIEMPNGQERTIDPNLEDLPPGMPFEIYVMPPKDGSAGGS [r16_31_TrROS]
- folding stability dG unfold [2]: -0.212 ± 0.33 kcal/mol
- folding stability dG unfold [3]: < -1 kcal/mol

Sequence: SSMSTPSSSTLTVELPDREVTASATTTTLPDGTTTTTTTFPDGSTITYDPATGTTTIYDPATGAPLATTGSA [r9_970_JUSTAS]
- folding stability dG unfold [2]: 0.959 ± 0.048 kcal/mol
- folding stability dG unfold [3]: 0.344 ± 0.047 kcal/mol
